Reference: US20150344570A1 (published 2015)

B1: GpH7-A5/GpH7-B3 variant K334_18N/GpL16-k0 (antibody, human IgG1, kappa)
heavy 1: not shown
heavy 2: not shown
light: DIVMTQSPLSLPVTPGEPASISCQASESLVHSNRNTYLHWYLQKPGQSPQLLIYKVSNRFSGVPDRFSGSGSGTDFTLKISRVEAEDVGVYYCSQNTHVPPTFGQGTKVEIERTVAAPSVFIFPPSDEQLKSGTASVVCLLNNFYPREAKVQWKVDNALQSGNSQESVTEQDSKDSTYSLSSTLTLSKADYEKHKVYACEVTHQGLSSPVTKSFNRGEC
notes: also called He Ab K334_18N
B2: GpH7-A5/GpH7-B3 variant K334_19Q/GpL16-k0 (antibody, human IgG1, kappa)
heavy 1: not shown
heavy 2: not shown
light: B1 light
notes: also called He Ab K334_19Q
B3: GpH7-A5/GpH7-B3 variant Q295_02A/GpL16-k0 (antibody, human IgG1, kappa)
heavy 1: not shown
heavy 2: not shown
light: B1 light
notes: also called He Ab Q295_02A
B4: GpH7-A5/GpH7-B3 variant Q295_10E/GpL16-k0 (antibody, human IgG1, kappa)
heavy 1: not shown
heavy 2: not shown
light: B1 light
notes: also called He Ab Q295_10E
B5: GpH7-A5/GpH7-B3 variant S337_10E/GpL16-k0 (antibody, human IgG1, kappa)
heavy 1: not shown
heavy 2: not shown
light: B1 light
notes: also called He Ab S337_10E
B6: GpH7-A5/GpH7-B3 variant S239_09D/GpL16-k0 (antibody, human IgG1, kappa)
heavy 1: not shown
heavy 2: not shown
light: B1 light
notes: also called He Ab S239_09D
B7: GpH7-A5/GpH7-B3 variant S267_09D/GpL16-k0 (antibody, human IgG1, kappa)
heavy 1: not shown
heavy 2: not shown
light: B1 light
notes: also called He Ab S267_09D
B8: GpH7-A5/GpH7-B3 variant S337_18N/GpL16-k0 (antibody, human IgG1, kappa)
heavy 1: not shown
heavy 2: not shown
light: B1 light
notes: also called He Ab S337_18N
B9: GpH7-A5/GpH7-B3 variant S267_02A/GpL16-k0 (antibody, human IgG1, kappa)
heavy 1: not shown
heavy 2: not shown
light: B1 light
notes: also called He Ab S267_02A
B10: GpH7-A5/GpH7-B3 variant S337_09D/GpL16-k0 (antibody, human IgG1, kappa)
heavy 1: not shown
heavy 2: not shown
light: B1 light
notes: also called He Ab S337_09D
B11: GpH7-A5/GpH7-B3 variant Q295_14T/GpL16-k0 (antibody, human IgG1, kappa)
heavy 1: not shown
heavy 2: not shown
light: B1 light
notes: also called He Ab Q295_14T
B12: GpH7-A5/GpH7-B3 variant T335_10E/GpL16-k0 (antibody, human IgG1, kappa)
heavy 1: not shown
heavy 2: not shown
light: B1 light
notes: also called He Ab T335_10E
B13: GpH7-A5/GpH7-B3 variant K334_15Y/GpL16-k0 (antibody, human IgG1, kappa)
heavy 1: not shown
heavy 2: not shown
light: B1 light
notes: also called He Ab K334_15Y
B14: GpH7-A5/GpH7-B3 variant K334_16H/GpL16-k0 (antibody, human IgG1, kappa)
heavy 1: not shown
heavy 2: not shown
light: B1 light
notes: also called He Ab K334_16H
B15: GpH7-A5/GpH7-B3 variant T335_07I/GpL16-k0 (antibody, human IgG1, kappa)
heavy 1: not shown
heavy 2: not shown
light: B1 light
notes: also called He Ab T335_07I
B16: GpH7-A5/GpH7-B3 variant S298_14T/GpL16-k0 (antibody, human IgG1, kappa)
heavy 1: not shown
heavy 2: not shown
light: B1 light
notes: also called He Ab S298_14T
B17: GpH7-B3 variant E269_01G/GpL16-k0 (antibody, human IgG1, kappa)
heavy: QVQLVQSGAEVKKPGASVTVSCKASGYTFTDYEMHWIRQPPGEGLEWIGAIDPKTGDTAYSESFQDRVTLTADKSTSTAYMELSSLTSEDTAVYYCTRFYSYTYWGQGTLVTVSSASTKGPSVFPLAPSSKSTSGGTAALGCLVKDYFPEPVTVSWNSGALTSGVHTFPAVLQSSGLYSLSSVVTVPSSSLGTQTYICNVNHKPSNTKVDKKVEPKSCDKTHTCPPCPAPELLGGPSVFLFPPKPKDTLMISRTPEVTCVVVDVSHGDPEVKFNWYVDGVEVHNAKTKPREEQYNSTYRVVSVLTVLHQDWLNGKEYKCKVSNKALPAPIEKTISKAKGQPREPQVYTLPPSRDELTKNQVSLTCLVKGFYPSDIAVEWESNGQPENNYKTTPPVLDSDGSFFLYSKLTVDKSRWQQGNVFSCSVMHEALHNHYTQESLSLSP
light: B1 light
notes: also called Ho Ab E269_01G
B18: GpH7-B3 variant A327_07I/GpL16-k0 (antibody, human IgG1, kappa)
heavy: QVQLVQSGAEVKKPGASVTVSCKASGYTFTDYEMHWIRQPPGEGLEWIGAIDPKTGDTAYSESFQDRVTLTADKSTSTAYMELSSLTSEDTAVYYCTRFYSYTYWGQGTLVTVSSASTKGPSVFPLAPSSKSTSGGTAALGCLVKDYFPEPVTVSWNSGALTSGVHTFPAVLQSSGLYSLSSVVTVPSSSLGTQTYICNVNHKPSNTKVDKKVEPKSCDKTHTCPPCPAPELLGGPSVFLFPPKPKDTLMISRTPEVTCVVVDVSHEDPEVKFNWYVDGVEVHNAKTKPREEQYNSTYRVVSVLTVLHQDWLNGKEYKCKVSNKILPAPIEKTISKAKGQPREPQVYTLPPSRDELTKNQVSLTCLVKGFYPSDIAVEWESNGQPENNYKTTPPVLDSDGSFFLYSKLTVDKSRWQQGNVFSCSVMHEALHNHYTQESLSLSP
light: B1 light
notes: also called Ho Ab A327_07I
B19: GpH7-B3 variant A327_03V/GpL16-k0 (antibody, human IgG1, kappa)
heavy: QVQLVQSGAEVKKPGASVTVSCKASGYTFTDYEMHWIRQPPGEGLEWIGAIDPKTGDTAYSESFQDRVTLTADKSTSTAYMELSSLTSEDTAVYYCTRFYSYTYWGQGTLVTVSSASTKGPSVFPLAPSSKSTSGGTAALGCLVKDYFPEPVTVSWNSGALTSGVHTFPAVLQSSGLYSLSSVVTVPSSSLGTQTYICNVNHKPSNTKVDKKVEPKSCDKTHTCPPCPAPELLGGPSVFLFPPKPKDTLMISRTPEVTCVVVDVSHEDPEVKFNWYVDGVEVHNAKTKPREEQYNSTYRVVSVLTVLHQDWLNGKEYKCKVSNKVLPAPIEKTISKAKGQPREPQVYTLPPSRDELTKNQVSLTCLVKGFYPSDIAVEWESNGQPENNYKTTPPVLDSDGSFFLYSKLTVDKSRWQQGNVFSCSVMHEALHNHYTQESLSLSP
light: B1 light
notes: also called Ho Ab A327_03V
B20: GpH7-B3 variant A327_09D/GpL16-k0 (antibody, human IgG1, kappa)
heavy: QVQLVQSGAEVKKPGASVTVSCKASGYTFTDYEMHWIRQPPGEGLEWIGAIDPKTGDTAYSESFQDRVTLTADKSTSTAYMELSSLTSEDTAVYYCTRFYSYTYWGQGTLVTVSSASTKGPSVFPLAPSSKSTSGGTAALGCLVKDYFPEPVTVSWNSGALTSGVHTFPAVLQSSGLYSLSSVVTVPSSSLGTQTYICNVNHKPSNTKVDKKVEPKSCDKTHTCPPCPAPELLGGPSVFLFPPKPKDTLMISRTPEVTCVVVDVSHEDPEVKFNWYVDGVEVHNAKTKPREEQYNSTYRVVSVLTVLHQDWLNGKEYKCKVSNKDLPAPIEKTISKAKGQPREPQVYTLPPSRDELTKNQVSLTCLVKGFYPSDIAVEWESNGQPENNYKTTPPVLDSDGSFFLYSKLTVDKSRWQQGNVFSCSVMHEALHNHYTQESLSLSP
light: B1 light
notes: also called Ho Ab A327_09D
B21: GpH7-B3 variant A327_13S/GpL16-k0 (antibody, human IgG1, kappa)
heavy: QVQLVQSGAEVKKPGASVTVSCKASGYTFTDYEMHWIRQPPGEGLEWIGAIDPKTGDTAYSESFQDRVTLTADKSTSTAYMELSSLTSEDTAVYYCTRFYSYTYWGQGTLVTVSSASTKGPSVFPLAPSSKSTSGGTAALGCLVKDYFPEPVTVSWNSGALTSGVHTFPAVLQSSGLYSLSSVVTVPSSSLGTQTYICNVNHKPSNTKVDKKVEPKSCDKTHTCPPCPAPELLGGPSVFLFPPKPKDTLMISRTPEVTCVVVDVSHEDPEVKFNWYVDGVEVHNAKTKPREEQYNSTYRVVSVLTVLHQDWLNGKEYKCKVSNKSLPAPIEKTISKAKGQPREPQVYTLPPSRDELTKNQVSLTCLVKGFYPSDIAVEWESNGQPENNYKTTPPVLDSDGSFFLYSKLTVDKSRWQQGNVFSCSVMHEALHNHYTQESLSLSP
light: B1 light
notes: also called Ho Ab A327_13S
B22: GpH7-B3 variant A327_06M/GpL16-k0 (antibody, human IgG1, kappa)
heavy: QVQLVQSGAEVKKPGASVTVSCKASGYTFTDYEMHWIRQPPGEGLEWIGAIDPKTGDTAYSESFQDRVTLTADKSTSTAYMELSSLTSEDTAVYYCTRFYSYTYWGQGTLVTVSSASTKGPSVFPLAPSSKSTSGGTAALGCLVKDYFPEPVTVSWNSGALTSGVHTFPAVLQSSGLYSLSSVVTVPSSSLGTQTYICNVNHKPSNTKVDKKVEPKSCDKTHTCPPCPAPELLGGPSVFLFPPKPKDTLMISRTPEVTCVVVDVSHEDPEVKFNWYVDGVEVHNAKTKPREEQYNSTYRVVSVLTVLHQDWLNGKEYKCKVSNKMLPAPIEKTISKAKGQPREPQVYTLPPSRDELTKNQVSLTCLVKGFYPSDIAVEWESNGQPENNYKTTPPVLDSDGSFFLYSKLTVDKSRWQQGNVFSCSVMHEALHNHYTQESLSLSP
light: B1 light
notes: also called Ho Ab A327_06M
B23: GpH7-B3 variant A327_10E/GpL16-k0 (antibody, human IgG1, kappa)
heavy: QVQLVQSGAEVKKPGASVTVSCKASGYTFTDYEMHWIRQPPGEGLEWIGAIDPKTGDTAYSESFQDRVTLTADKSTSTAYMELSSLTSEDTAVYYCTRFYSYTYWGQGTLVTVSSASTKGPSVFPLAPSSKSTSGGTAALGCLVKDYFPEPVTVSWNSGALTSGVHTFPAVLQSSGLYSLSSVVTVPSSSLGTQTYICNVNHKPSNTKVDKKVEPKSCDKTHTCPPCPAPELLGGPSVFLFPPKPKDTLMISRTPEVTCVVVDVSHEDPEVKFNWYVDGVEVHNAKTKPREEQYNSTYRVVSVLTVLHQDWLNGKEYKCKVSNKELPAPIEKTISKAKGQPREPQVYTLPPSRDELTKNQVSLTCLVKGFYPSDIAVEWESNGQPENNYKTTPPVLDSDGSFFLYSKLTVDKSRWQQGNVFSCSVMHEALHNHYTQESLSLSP
light: B1 light
notes: also called Ho Ab A327_10E

What follows are binders tested against T1, FcγRIIIa extracellular domain with C-terminal His tag (human, UniProt P08637 17-208) (assay: SPR Biacore, captured antibody, FcγR analyte, relative binding).
T1 construct: extracellular domain; also called FcgRIIIa; 3a; not shown: His tag attached to the C terminus
T1 sequence (P08637 17-208): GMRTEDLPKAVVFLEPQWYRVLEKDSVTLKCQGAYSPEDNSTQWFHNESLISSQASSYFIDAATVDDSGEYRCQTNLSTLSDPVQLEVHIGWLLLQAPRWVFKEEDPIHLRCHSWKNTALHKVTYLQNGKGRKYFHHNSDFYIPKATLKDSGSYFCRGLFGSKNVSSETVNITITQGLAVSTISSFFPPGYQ
Outline: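 SPR, 25° C, HBS-EP+; Ab captured via immobilized antigen peptide (CM5 amine coupling or SA/biotin); FcγR in running buffer as analyte; regen 10 mM glycine-HCl pH 1.5.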

| He/Con_3a | Binder |
| --- | --- |
| 136 % of HeCon Ab GpH7-A5/GpH7-B3/GpL16-k0 (=100) | B1 |
| 136 % of HeCon Ab GpH7-A5/GpH7-B3/GpL16-k0 (=100) | B2 |
| 106 % of HeCon Ab GpH7-A5/GpH7-B3/GpL16-k0 (=100) | B3 |
| 100 % of HeCon Ab GpH7-A5/GpH7-B3/GpL16-k0 (=100) | B4 |
| 105 % of HeCon Ab GpH7-A5/GpH7-B3/GpL16-k0 (=100) | B5 |
| 166 % of HeCon Ab GpH7-A5/GpH7-B3/GpL16-k0 (=100) | B6 |
| 181 % of HeCon Ab GpH7-A5/GpH7-B3/GpL16-k0 (=100) | B7 |
| 104 % of HeCon Ab GpH7-A5/GpH7-B3/GpL16-k0 (=100) | B8 |
| 150 % of HeCon Ab GpH7-A5/GpH7-B3/GpL16-k0 (=100) | B9 |
| 110 % of HeCon Ab GpH7-A5/GpH7-B3/GpL16-k0 (=100) | B10 |
| 115 % of HeCon Ab GpH7-A5/GpH7-B3/GpL16-k0 (=100) | B11 |
| 107 % of HeCon Ab GpH7-A5/GpH7-B3/GpL16-k0 (=100) | B12 |
| 141 % of HeCon Ab GpH7-A5/GpH7-B3/GpL16-k0 (=100) | B13 |
| 134 % of HeCon Ab GpH7-A5/GpH7-B3/GpL16-k0 (=100) | B14 |
| 107 % of HeCon Ab GpH7-A5/GpH7-B3/GpL16-k0 (=100) | B15 |
| 113 % of HeCon Ab GpH7-A5/GpH7-B3/GpL16-k0 (=100) | B16 |

These binders were tested against T2, FcγRIa (human, UniProt P12314 16-292) (assay: SPR (Biacore); Ho Ab relative to HoCon Ab = 100).
T2 construct: extracellular domain; also called FcgRI; 1a
T2 sequence (P12314 16-292): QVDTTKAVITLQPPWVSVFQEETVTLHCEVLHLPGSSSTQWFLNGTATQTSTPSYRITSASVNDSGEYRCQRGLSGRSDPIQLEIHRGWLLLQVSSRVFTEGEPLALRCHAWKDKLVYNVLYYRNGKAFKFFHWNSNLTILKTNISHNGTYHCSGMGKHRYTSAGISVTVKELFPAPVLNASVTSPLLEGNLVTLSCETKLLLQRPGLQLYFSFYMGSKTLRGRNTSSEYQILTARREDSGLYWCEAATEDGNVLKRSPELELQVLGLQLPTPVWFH
Method: Analysis of interaction between objective antibody and the FcγR was carried out using Biacore T100 (GE Healthcare). HBS-EP+ (GE Healthcare) was used as the running buffer, and the measurement temperature was set to 25° C. Chips produced by immobilizing the antigen peptide by the amine coupling method to a Series S Sencor Chip CM5 (GE Healthcare), or alternatively, chips produced by allowing preliminarily biotinylated antigen peptides to interact with and immobilize onto a Series S Sensor Chip SA (certified) (GE Healthcare) were used. Antibodies of interest were captured onto an antigen peptide-immobilized chip, and allowed to interact to each FcγR diluted with running buffer. To regenerate and repeatedly use the chip, the antibodies captured on the chip were washed off by reacting 10 mM glycine-HCl, pH 1.5.

| Ho/Con_1a | Binder |
| --- | --- |
| 97.4 % of control | B17 |
| 95.5 % of control | B18 |
| 94.4 % of control | B19 |
| 102 % of control | B20 |
| 86.1 % of control | B21 |
| 93.1 % of control | B22 |
| 98.8 % of control | B23 |
